Data from patent US20140255415A1 (Novartis, published 2014).
Positions count from the first letter of the chain named.

How the values were obtained:
[1] = target: human LINGO-1 expressed on CHO-K1 cells (CHO-K1-hLINGO-1) (human) (UniProt Q96FE5); assay: apparent KD, FACS saturation binding on CHO-K1-hLINGO-1 cells, IgG4 format
[2] = target: T1, human LINGO-2 expressed on CHO-K1 cells (CHO-K1-hLINGO-2) (human, UniProt Q7L985 26-606); assay: apparent KD, FACS saturation binding on CHO-K1-hLINGO-2 cells, IgG4 format
T1 construct: range 26-606; not shown: 2 amino acid residue linker
T1 sequence (looked up): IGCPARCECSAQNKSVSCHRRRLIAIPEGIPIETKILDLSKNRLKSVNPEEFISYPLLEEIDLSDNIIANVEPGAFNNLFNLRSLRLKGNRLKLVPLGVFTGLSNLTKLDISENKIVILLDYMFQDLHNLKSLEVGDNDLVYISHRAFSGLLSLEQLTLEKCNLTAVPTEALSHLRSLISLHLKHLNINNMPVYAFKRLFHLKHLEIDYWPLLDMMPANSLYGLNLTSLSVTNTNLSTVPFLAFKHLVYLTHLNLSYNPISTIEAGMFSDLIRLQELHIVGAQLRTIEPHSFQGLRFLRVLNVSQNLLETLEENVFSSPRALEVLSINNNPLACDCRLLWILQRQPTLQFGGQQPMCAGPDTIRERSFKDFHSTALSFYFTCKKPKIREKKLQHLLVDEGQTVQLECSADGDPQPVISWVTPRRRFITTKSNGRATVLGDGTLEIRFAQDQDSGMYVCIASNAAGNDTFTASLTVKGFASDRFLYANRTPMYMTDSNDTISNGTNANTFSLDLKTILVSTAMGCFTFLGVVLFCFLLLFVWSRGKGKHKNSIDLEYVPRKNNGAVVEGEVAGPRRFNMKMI

[3] = target: T2, rat LINGO-1 expressed on CHO-K1 cells (CHO-K1-rLINGO-1) (rat, UniProt A0A8I5ZPI2 34-614); assay: apparent KD, FACS saturation binding on CHO-K1-rLINGO-1 cells, IgG4 format
T2 construct: range 34-614; not shown: 2 amino acid residue linker
T2 sequence: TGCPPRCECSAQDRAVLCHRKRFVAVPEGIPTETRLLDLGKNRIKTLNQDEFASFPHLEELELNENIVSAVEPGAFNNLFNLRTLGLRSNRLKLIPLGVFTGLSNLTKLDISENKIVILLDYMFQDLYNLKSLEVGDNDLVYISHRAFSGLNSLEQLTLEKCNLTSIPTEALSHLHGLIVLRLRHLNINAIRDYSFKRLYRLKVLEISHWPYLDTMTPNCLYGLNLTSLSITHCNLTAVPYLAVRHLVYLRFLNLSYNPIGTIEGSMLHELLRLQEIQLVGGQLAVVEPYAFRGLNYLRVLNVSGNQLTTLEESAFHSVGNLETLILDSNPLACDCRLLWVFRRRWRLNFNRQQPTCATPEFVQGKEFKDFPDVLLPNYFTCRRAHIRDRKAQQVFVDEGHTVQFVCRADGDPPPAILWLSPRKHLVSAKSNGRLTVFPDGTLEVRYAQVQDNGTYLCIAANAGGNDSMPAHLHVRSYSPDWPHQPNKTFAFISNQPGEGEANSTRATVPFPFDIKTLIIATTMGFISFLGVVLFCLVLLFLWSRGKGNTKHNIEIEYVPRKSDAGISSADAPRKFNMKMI
Description: (§1) Cell based affinity of anti-LINGO-1 specific antibodies is determined by FACS saturation binding experiments. The determination of the apparent KD values is carried out identical to the procedure described above using anti-LINGO-1 Fab antibodies.
(§2) In detail, CHO-K1-hLINGO-1, CHO-K1-cmLINGO-1 or CHO-K1-rLINGO-1 are detached from culture flasks by versene, washed with FACS buffer and resuspended in FACS buffer. Purified anti-LINGO-1 IgG4s are serially diluted in FACS buffer and spread into round bottom 96-well microtiter plates (NUNC™, Wiesbaden, Germany). For each concentration, duplicate wells are incubated with 1.25×10⁴ cells for 30-60 min on ice in a total volume of 100 μl. […] Using this assay the following apparent KD values can be determined (Table 3).

[4] = target: T3, cynomolgus monkey LINGO-1 expressed on CHO-K1 cells (CHO-K1-cmLINGO-1) (cynomolgus monkey, UniProt Q9N008 34-614); assay: apparent KD, FACS saturation binding on CHO-K1-cmLINGO-1 cells, IgG4 format
T3 construct: range 34-614; also called Cynomolgus LINGO-1; not shown: 2 amino acid residue linker
T3 sequence (looked up): T2 sequence with G261S, V286M, A315V, H386R, S494P
Description: as §1, §2

[5] = target: human LINGO-1 expressed on CHO-K1 cells (CHO-K1-hLINGO-1) (human) (UniProt Q96FE5); assay: FACS saturation binding on CHO-K1-hLINGO-1 cells, IgG4, with 50% human CSF against control
[6] = target: human LINGO-1 expressed on CHO-K1 cells (CHO-K1-hLINGO-1) (human) (UniProt Q96FE5); assay: apparent KD, FACS saturation binding on CHO-K1-hLINGO-1 cells, IgG4 pre-incubated in FACS buffer
[7] = target: human LINGO-1 expressed on CHO-K1 cells (CHO-K1-hLINGO-1) (human) (UniProt Q96FE5); assay: apparent KD, FACS saturation binding on CHO-K1-hLINGO-1 cells, IgG4, with 50% human cerebro-spinal fluid
[8] = target: human LINGO-1 expressed on CHO-K1 cells (CHO-K1-hLINGO-1) (human) (UniProt Q96FE5); assay: apparent KD, FACS saturation binding on CHO-K1-hLINGO-1 cells, IgG4 pre-incubated in FACS buffer + 2.6% BSA
[9] = target: human LINGO-1 expressed on CHO-K1 cells (CHO-K1-hLINGO-1) (human) (UniProt Q96FE5); assay: ratio of apparent KDs, FACS saturation binding on CHO-K1-hLINGO-1 cells, IgG4, without against with 50% human CSF
[10] = target: human LINGO-1 expressed on CHO-K1 cells (CHO-K1-hLINGO-1) (human) (UniProt Q96FE5); assay: apparent KD, FACS saturation binding on CHO-K1-hLINGO-1 cells, IgG4 pre-incubated in FACS buffer + 50% human serum
[11] = target: human LINGO-1 expressed on CHO-K1 cells (CHO-K1-hLINGO-1) (human) (UniProt Q96FE5); assay: apparent KD, FACS saturation binding on CHO-K1-hLINGO-1 cells, IgG4, without 50% human cerebro-spinal fluid (control)

B1: anti-LINGO-1 IgG4 antibody 4784 (antibody, V domains shown)
VH: QVQLKESGPALVKPTQTLTLTCTFSGFSLSSSGVGVGWIRQPPGKALEWLAHIGSDDDKYYSTSLKTRLTISKDTSKNQVVLTMTNMDPVDTATYYCARNQQYGDGYPGYFDYWGQGTLVTVSS
VL: DIELTQPPSVSVAPGQTARISCSGDNIGNYYVYWYQQKPGQAPVLVIYEDTNRPSGIPERFSGSNSGNTATLTISGTQAEDEADYYCQSYDNLHEQVFGGGTKLTVLG
Kd [1]: 290 pM | Kd [2]: 25900 pM | Kd [3]: 980 pM | Kd [4]: 620 pM | reduction in affinity [5]: 73% | Kd [6]: 280 pM | Kd [7]: 1570 pM | Kd [8]: 190 pM | App. KD ratio w/o CSF:w/ CSF [9]: 0.27 | Kd [10]: 270 pM | Kd [11]: 430 pM
